One protein from paper PMC12312269, “Directed evolution of α-ketoisovalerate decarboxylase for improved isobutanol and 3-methyl-1-butanol production in cyanobacteria” (Biotechnology for Biofuels and Bioproducts, 2025) can be followed below.

The data set concerns the molecule itself. Description: crystal structure; hanging-drop vapour diffusion, 16-17.8% PEG6000 or PEG3350, 0.1 M MES pH 6.0, 20 °C; space group C2, four molecules (two dimers) in the asymmetric unit.

B1: α-ketoisovalerate decarboxylase Kivd^S286T (enzyme, Lactococcus lactis)
chain: MYTVGDYLLDRLHELGIEEIFGVPGDYNLQFLDQIISHKDMKWVGNANELNASYMADGYARTKKAAAFLTTFGVGELSAVNGLAGSYAENLPVVEIVGSPTSKVQNEGKFVHHTLADGDFKHFMKMHEPVTAARTLLTAENATVEIDRVLSALLKERKPVYINLPVDVAAAKAEKPSLPLKKENSTSNTSDQEILNKIQESLKNAKKPIVITGHEIISFGLEKTVTQFISKTKLPITTLNFGKSSVDEALPSFLGIYNGTLSEPNLKEFVESADFILMLGVKLTDTSTGAFTHHLNENKMISLNIDEGKIFNERIQNFDFESLISSLLDLSEIEYKGKYIDKKQEDFVPSNALLSQDRLWQAVENLTQSNETIVAEQGTSFFGASSIFLKSKSHFIGQPLWGSIGYTFPAALGSQIADKESRHLLFIGDGSLQLTVQELGLAIREKINPICFIINNDGYTVEREIHGPNQSYNDIPMWNYSKLPESFGATEDRVVSKIVRTENEFVSVMKEAQADPNRMYWIELILAKEGAPKVLKKMGKLFAEQNKS
notes: α-ketoisovalerate decarboxylase (Kivd) from Lactococcus lactis with the substitution S286T; the structure section names residues up to 548; Stored with 2.5 mM MgSO4 and 0.1 mM ThDP; also called ST; not shown: H6-Ub, N-terminal, cleaved
As to B1, the “stoichiometry N” value worked out at 4.
